Laboratory results reported in patent publication US20230235012A1 (ALPINE IMMUNE SCIENCES, published 2023).
Substitutions are numbered along the chain they refer to. Numbers in names are those of the source.

T1: human ICOS, full-length, expressed on transfected Expi293 cells (human, UniProt Q9Y6W8 21-199)
T1 construct: whole, on cells
T1 sequence (looked up): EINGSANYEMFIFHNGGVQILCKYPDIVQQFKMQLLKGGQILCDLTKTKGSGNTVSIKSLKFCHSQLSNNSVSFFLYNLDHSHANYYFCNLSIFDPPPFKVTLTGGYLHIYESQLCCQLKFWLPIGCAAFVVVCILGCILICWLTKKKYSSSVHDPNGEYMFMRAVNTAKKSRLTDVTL

B1: wild-type ICOSL IgV-Fc fusion (Fc fusion)
chain: DTQEKEVRAMVGSDVELSCACPEGSRFDLNDVYVYWQTSESKTVVTYHIPQNSSLENVDSRYRNRALMSPAGMLRGDFSLRLFNVTPQDEQKFHCLVLSQSLGFQEVLSVEVTLHVAANFSVGSGGGGSEPKSSDKTHTCPPCPAPEAEGAPSVFLFPPKPKDTLMISRTPEVTCVVVDVSHEDPEVKFNWYVDGVEVHNAKTKPREEQYNSTYRVVSVLTVLHQDWLNGKEYKCKVSNKALPAPIEKTISKAKGQPREPQVYTLPPSREEMTKNQVSLTCLVKGFYPSDIAVEWESNGQPENNYKTTPPVLDSDGSFFLYSKLTVDKSRWQQGNVFSCSVMHEALHNHYTQKSLSLSPG
notes: also called WT ICOSL
B2: variant ICOSL IgV-Fc fusion N52T/N57H/Q100A (Fc fusion)
chain: B1 chain with N52T, N57H, Q100A
B3: variant ICOSL IgV-Fc fusion N52G/N57V (Fc fusion)
chain: B1 chain with N52G, N57V
B4: variant ICOSL IgV-Fc fusion N52K/N57Y/Q100R (Fc fusion)
chain: B1 chain with N52K, N57Y, Q100R
B5: variant ICOSL IgV-Fc fusion N52S/N57M/Q100S (Fc fusion)
chain: B1 chain with N52S, N57M, Q100S
B6: variant ICOSL IgV-Fc fusion N52R/N57L/Q100S (Fc fusion)
chain: B1 chain with N52R, N57L, Q100S
B7: variant ICOSL IgV-Fc fusion N52M/N57H/Q100S (Fc fusion)
chain: B1 chain with N52M, N57H, Q100S
B8: variant ICOSL IgV-Fc fusion N52L/N57V (Fc fusion)
chain: B1 chain with N52L, N57V
B9: variant ICOSL IgV-Fc fusion N52Q/N57S/Q100A (Fc fusion)
chain: B1 chain with N52Q, N57S, Q100A
B10: variant ICOSL IgV-Fc fusion N52R/N57Y/Q100R (Fc fusion)
chain: B1 chain with N52R, N57Y, Q100R
B11: variant ICOSL IgV-Fc fusion N52G/N57V/Q100G (Fc fusion)
chain: B1 chain with N52G, N57V, Q100G
B12: variant ICOSL IgV-Fc fusion N52V/N57L/Q100A (Fc fusion)
chain: B1 chain with N52V, N57L, Q100A
B13: variant ICOSL IgV-Fc fusion N52T/N57H/Q100S (Fc fusion)
chain: B1 chain with N52T, N57H, Q100S
B14: variant ICOSL IgV-Fc fusion N52S/N57Y/Q100S (Fc fusion)
chain: B1 chain with N52S, N57Y, Q100S
B15: variant ICOSL IgV-Fc fusion N52P/N57S/Q100G (Fc fusion)
chain: B1 chain with N52P, N57S, Q100G
B16: variant ICOSL IgV-Fc fusion N52R/N57L/Q100A (Fc fusion)
chain: B1 chain with N52R, N57L, Q100A
B17: variant ICOSL IgV-Fc fusion N52L/N57H/Q100R (Fc fusion)
chain: B1 chain with N52L, N57H, Q100R
B18: variant ICOSL IgV-Fc fusion N52S/N57Y/Q100V (Fc fusion)
chain: B1 chain with N52S, N57Y, Q100V
B19: variant ICOSL IgV-Fc fusion N52S/N57H/Q100E (Fc fusion)
chain: B1 chain with N52S, N57H, Q100E
B20: variant ICOSL IgV-Fc fusion N52M/N57W/Q100P (Fc fusion)
chain: B1 chain with N52M, N57W, Q100P
B21: variant ICOSL IgV-Fc fusion N52A/N57F/Q100S (Fc fusion)
chain: B1 chain with N52A, N57F, Q100S
B22: variant ICOSL IgV-Fc fusion N52C/N57E/Q100S (Fc fusion)
chain: B1 chain with N52C, N57E, Q100S
B23: variant ICOSL IgV-Fc fusion N52S/N57L/Q100S (Fc fusion)
chain: B1 chain with N52S, N57L, Q100S
B24: variant ICOSL IgV-Fc fusion N52S/N57Y/Q100M (Fc fusion)
chain: B1 chain with N52S, N57Y, Q100M
B25: variant ICOSL IgV-Fc fusion N52R/N57F/Q100T (Fc fusion)
chain: B1 chain with N52R, N57F, Q100T
B26: variant ICOSL IgV-Fc fusion N52Q/N57F (Fc fusion)
chain: B1 chain with N52Q, N57F
B27: variant ICOSL IgV-Fc fusion N52R/N57W/Q100K (Fc fusion)
chain: B1 chain with N52R, N57W, Q100K
B28: variant ICOSL IgV-Fc fusion N52R/N57Y/Q100S (Fc fusion)
chain: B1 chain with N52R, N57Y, Q100S
B29: variant ICOSL IgV-Fc fusion N52A/N57Y/Q100A (Fc fusion)
chain: B1 chain with N52A, N57Y, Q100A
B30: variant ICOSL IgV-Fc fusion N52H/N57Y/Q100K (Fc fusion)
chain: B1 chain with N52H, N57Y, Q100K
B31: variant ICOSL IgV-Fc fusion N52G/Q100A (Fc fusion)
chain: B1 chain with N52G, Q100A

Target: T2, human CTLA-4, full-length, expressed on transfected Expi293 cells (human, UniProt P16410 36-223)
T2 construct: whole, on cells
Assay: flow cytometry, 100 nM, Expi293 cells with human CTLA-4

T2 sequence (P16410 36-223): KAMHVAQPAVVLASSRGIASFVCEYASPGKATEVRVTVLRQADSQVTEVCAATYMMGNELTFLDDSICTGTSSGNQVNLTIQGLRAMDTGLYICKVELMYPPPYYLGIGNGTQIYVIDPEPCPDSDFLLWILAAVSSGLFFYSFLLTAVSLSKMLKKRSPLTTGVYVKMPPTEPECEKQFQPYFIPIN

Row | Binder | MFI | MFI ratio to WT (ΔWT)
1 | B1 | 330000 MFI | 1 fold
2 | B2 | 350000 MFI | 1.06 fold
3 | B3 | 52500 MFI | 0.16 fold
4 | B4 | 233000 MFI | 0.71 fold
5 | B5 | 228000 MFI | 0.69 fold
6 | B6 | 289000 MFI | 0.88 fold
7 | B7 | 463000 MFI | 1.4 fold
8 | B8 | 151000 MFI | 0.46 fold
9 | B9 | 315000 MFI | 0.95 fold
10 | B10 | 4270 MFI | 0.01 fold
11 | B11 | 14700 MFI | 0.04 fold
12 | B12 | 252000 MFI | 
13 | B13 | 378000 MFI | 1.14 fold
14 | B14 | 205000 MFI | 0.62 fold
15 | B15 | 5050 MFI | 0.02 fold
16 | B16 | 403000 MFI | 1.22 fold
17 | B17 | 353000 MFI | 1.07 fold
18 | B18 | 305000 MFI | 0.92 fold
19 | B19 | 302000 MFI | 0.92 fold
20 | B20 | 343000 MFI | 1.04 fold
21 | B21 | 255000 MFI | 0.77 fold
22 | B22 | 10600 MFI | 0.03 fold
23 | B23 | 197000 MFI | 0.6 fold
24 | B24 | 395000 MFI | 1.2 fold
25 | B25 | 358000 MFI | 1.08 fold
26 | B26 | 367000 MFI | 1.11 fold
27 | B27 | 477000 MFI | 1.44 fold
28 | B28 | 504000 MFI | 1.53 fold
29 | B29 | 320000 MFI | 0.97 fold

Target: T1, human ICOS, full-length, expressed on …
Assay: flow cytometry, 100 nM, Expi293 cells with human ICOS

Row | Binder | MFI | MFI ratio to WT (ΔWT)
30 | B1 | 212000 MFI | 1 fold
31 | B2 | 220000 MFI | 1.04 fold
32 | B3 | 332000 MFI | 1.57 fold
33 | B4 | 199000 MFI | 0.94 fold
34 | B30 | 214000 MFI | 
35 | B5 | 312000 MFI | 1.47 fold
36 | B6 | 231000 MFI | 1.09 fold
37 | B7 | 266000 MFI | 1.25 fold
38 | B8 | 257000 MFI | 1.21 fold
39 | B9 | 263000 MFI | 1.24 fold
40 | B10 | 6100 MFI | 0.03 fold
41 | B11 | 260000 MFI | 1.23 fold
42 | B13 | 259000 MFI | 1.22 fold
43 | B14 | 224000 MFI | 1.06 fold
44 | B15 | 143000 MFI | 0.68 fold
45 | B16 | 308000 MFI | 1.45 fold
46 | B17 | 250000 MFI | 1.18 fold
47 | B18 | 219000 MFI | 1.03 fold
48 | B19 | 258000 MFI | 1.22 fold
49 | B20 | 322000 MFI | 1.52 fold
50 | B31 | 303000 MFI | 
51 | B21 | 242000 MFI | 1.14 fold
52 | B22 | 125000 MFI | 0.59 fold
53 | B23 | 269000 MFI | 1.27 fold
54 | B24 | 303000 MFI | 1.43 fold
55 | B25 | 270000 MFI | 1.27 fold
56 | B26 | 192000 MFI | 0.91 fold
57 | B27 | 349000 MFI | 1.65 fold
58 | B28 | 229000 MFI | 1.08 fold
59 | B29 | 261000 MFI | 1.23 fold

Target: T3, human CD28, full-length, expressed on transfected Expi293 cells (human, UniProt P10747 19-220)
T3 construct: whole, on cells
Assay: flow cytometry, 100 nM, Expi293 cells with human CD28

Row | Binder | MFI | MFI ratio to WT (ΔWT)
60 | B1 | 22300 MFI | 1 fold
61 | B2 | 113000 MFI | 5 fold
62 | B3 | 69100 MFI | 3.1 fold
63 | B4 | 141000 MFI | 6.3 fold
64 | B30 | 142000 MFI | 
65 | B5 | 134000 MFI | 6 fold
66 | B6 | 112000 MFI | 5 fold
67 | B7 | 115000 MFI | 5.1 fold
68 | B8 | 54800 MFI | 2.5 fold
69 | B9 | 91300 MFI | 4.1 fold
70 | B10 | 3280 MFI | 0.1 fold
71 | B11 | 23700 MFI | 1.1 fold
72 | B12 | 132000 MFI | 
73 | B13 | 143000 MFI | 6.4 fold
74 | B14 | 161000 MFI | 7.2 fold
75 | B15 | 6800 MFI | 0.3 fold

Row | Binder | MFI | MFI ratio to WT (ΔWT)
76 | B16 | 119000 MFI | 5.3 fold
77 | B17 | 141000 MFI | 6.3 fold
78 | B18 | 126000 MFI | 5.7 fold
79 | B19 | 117000 MFI | 5.2 fold
80 | B20 | 168000 MFI | 7.5 fold
81 | B31 | 98700 MFI | 
82 | B21 | 157000 MFI | 7 fold
83 | B22 | 13400 MFI | 0.6 fold
84 | B23 | 108000 MFI | 4.8 fold
85 | B24 | 157000 MFI | 7 fold
86 | B25 | 127000 MFI | 5.7 fold
87 | B26 | 131000 MFI | 5.9 fold
88 | B27 | 131000 MFI | 5.9 fold
89 | B28 | 133000 MFI | 6 fold
90 | B29 | 147000 MFI | 6.6 fold
